# Measured values published in publication PMC4013092.
# Molecular target: Mdb1 (UniProt O14079)
# Test: biotin-peptide streptavidin pull-down, Coomassie stain
# Conditions: reference: unphosphorylated H2A peptide; sites S129
substance,measurement,value
"H2A.1 C-terminal 13 residues, 120-132 (from UniProt P04909) pS129 (γH2A) peptide",binding against the reference,gained
